Experimental findings from FireProtDB (doi:10.1021/bi00200a042) are described below.

Cytochrome c isoform 1 F88S|C108A, P00044 F88S C108A, sequence (P00044 whole entry F88S/C108A, canonical isoform): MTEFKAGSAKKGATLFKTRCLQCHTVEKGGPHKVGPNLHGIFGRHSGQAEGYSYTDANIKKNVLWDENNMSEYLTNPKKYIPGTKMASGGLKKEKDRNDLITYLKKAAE
Cytochrome c isoform 1 C108A, P00044, sequence (P00044 whole entry C108A, canonical isoform): as the sequence (P00044 whole entry F88S/C108A, canonical isoform) above, with S88F counted along it
Cytochrome c isoform 1 N58I|C108A, P00044 N58I C108A, sequence (P00044 whole entry N58I/C108A, canonical isoform): as the sequence (P00044 whole entry F88S/C108A, canonical isoform) above, with N58I, S88F counted along it
Cytochrome c isoform 1 R44A|N58I|F88S|C108A, P00044 R44A N58I F88S C108A, sequence (P00044 whole entry R44A/N58I/F88S/C108A, canonical isoform): as the sequence (P00044 whole entry F88S/C108A, canonical isoform) above, with R44A, N58I counted along it
Cytochrome c isoform 1 R44A|C108A, P00044 R44A C108A, sequence (P00044 whole entry R44A/C108A, canonical isoform): as the sequence (P00044 whole entry F88S/C108A, canonical isoform) above, with R44A, S88F counted along it
Cytochrome c isoform 1 R44A|N58I|C108A, P00044 R44A N58I C108A, sequence (P00044 whole entry R44A/N58I/C108A, canonical isoform): as the sequence (P00044 whole entry F88S/C108A, canonical isoform) above, with R44A, N58I, S88F counted along it
Cytochrome c isoform 1 N58I|F88S|C108A, P00044 N58I F88S C108A, sequence (P00044 whole entry N58I/F88S/C108A, canonical isoform): as the sequence (P00044 whole entry F88S/C108A, canonical isoform) above, with N58I counted along it

For this data set the following is noted: Saccharomyces cerevisiae (strain ATCC 204508 / S288c); pH 7; 25 °C; GdnHCl; Fluorescence; Potassium phosphate 0.1 M; reversible: yes; structure 1YCC.
“Cytochrome c isoform 1 N58I|F88S|C108A, P00044 N58I F88S C108A”: the denaturant m value was found to be 3.2 kcal/mol/M, the “denaturant midpoint (higher = more stable)” value (from here on “denaturant midpoint”) was determined as 1.7 M and the unfolding free energy is 5.5 kcal/mol.
For “Cytochrome c isoform 1 N58I|C108A, P00044 N58I C108A”, the denaturant m value is 4.2 kcal/mol/M, the “denaturant midpoint” value was determined as 2.1 M and the unfolding free energy was found to be 9 kcal/mol.
Take Cytochrome c isoform 1 C108A, P00044: the denaturant m value is 3.9 kcal/mol/M, the “denaturant midpoint” value was 1.3 M and the unfolding free energy was determined as 5 kcal/mol.
Regarding “Cytochrome c isoform 1 R44A|N58I|C108A, P00044 R44A N58I C108A”, the denaturant m value was determined as 3.8 kcal/mol/M, the “denaturant midpoint” value stood at 2.1 M and the unfolding free energy worked out at 8.2 kcal/mol.
On to “Cytochrome c isoform 1 R44A|C108A, P00044 R44A C108A”, for which the denaturant m value was found to be 3 kcal/mol/M, the “denaturant midpoint” value turned out to be 1.4 M and the unfolding free energy amounted to 3.8 kcal/mol.
As to “Cytochrome c isoform 1 R44A|N58I|F88S|C108A, P00044 R44A N58I F88S C108A”, the denaturant m value was 3.6 kcal/mol/M, the “denaturant midpoint” value turned out to be 1.7 M and the unfolding free energy turned out to be 6.2 kcal/mol.
As to “Cytochrome c isoform 1 F88S|C108A, P00044 F88S C108A”, the denaturant m value came out at 3.8 kcal/mol/M, the “denaturant midpoint” value was 0.9 M and the unfolding free energy stood at 3.5 kcal/mol.
